This data set can be described thus: yeast display, Sf9 membrane polyspecificity reagent, FACS + sequencing; frameworks hold sequencing errors. The procedure, abridged:
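Synthetic nanobody libraries on Saccharomyces cerevisiae BJ5465 were galactose-induced for 36–48 hours, stained 1 hour at 4 °C with 10% biotinylated, detergent-solubilized Sf9 membrane reagent and enriched on streptavidin microbeads. FACS then separated cells into low and high (top ~1%) gates by anti-HA (expression) and streptavidin (reagent binding) fluorescence. Genes were colony-PCR amplified, MiSeq 2 × 250 sequenced and CDR-length filtered. A clone's polyreactivity label is that of its gate of origin.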
“QDQLVESGGGLVQAGGSLRLSCAASGSIFPVYDMGWSRQAPGTEREMVAAISVSGGSTYYADSVKGRFTISRDNAKNTVYLQMKSLKPEDTAVYYCIADVHLYWYWYYEREDYWGQGTQVTVSS”: the “polyreactivity (PSR sort gate)” value was “low polyreactivity”.
Next, “QVQLVESGGGLVQAGGSLRLSCAASGSTFTRYAMGWYRQAPGKERELVASISRSGGRTYYADSVKGRFTISRDNAKNTVYLQMNSLKPEDTAVYYCAKLYLVTKSLLEITGGKYDGDYWGQGTQVTVSS”: “high polyreactivity”.
Next, “QVQLQESGRGLVQAGGSLRLSCAASGTISQEDWMGWYRQAPGKEREFVAAIGLGSNTNYADSLKGRFTISRDNAKNTVYLQMNSLKPEDTAVYYCAVSVWQYSDHVYRGQGTQVTVSS”: “low polyreactivity”; “QVQLVESGGGLVQAGASLRLSCAASGRISYYYTMGWYRQAPGKERELVAAISWSGGTTYYADSVKGRFTISRDNAKNTVYLQMNSLKPDDTAVYYCAAREYYTDVHGTRRYDYWGQGTQVTVSS”: “low polyreactivity”.
Next, “QVQLVESGGGLVQAGGSLRLSCAASGIIFGTYAMGWYRQAPGKERDLVAAISSSGGSTYYADSVKGRFTISRDNAKNTVYLQMNSLKPEDTAVYYCAADGPSNHDYHWGQGTQVTVSS”: “high polyreactivity”.
Regarding “QVQLVESGGGLVQAGGSLRLSCAASGRTFLVYAMGWYRQAPGKERELVAAISYSDGNTYYADSVKGRFTISRDHAKNTVYLQMNSLKPEDTAVYYCNAVTYGYPYDYWGQGTQVTVSS”, the “polyreactivity (PSR sort gate)” value is given as “low polyreactivity”.
The result for “QVQLVESGGGLVQAGGSLRLSCAASGSTFYYNVMGWYRQAPGKERELVAAISNAGTTNYADSVKGRFTISRDNAKNTVYLQMNSLKPEDTAVYYCNAEFIGPEGYWWYIEYYYWGQGTQVTVSS” reads “low polyreactivity”.
Next, “QVQLVESGGGLVQAGGSLRLSCAASGSTFTLYAMGWYRQAPGNERELVASITASDGSTSYADSVKGRFTISRDNAKNTVYLQMNSLKPEDTAVYYCAARYRVRGISYYYWGQGTQVTVSS”: “low polyreactivity”; “QVQLVESGGGIVQAGGSLRLSCAASGRIFATYAMGWYRQAPGKERELVAAIRSDGNTKYADSVKGRFTISRDNAKNTVYLQMNSLKPEDTAVYYCAAYARYAGVLYDYWGQGTQVTVSS”: “high polyreactivity”.
Turning to “QVQLVESGGGLVQAGGSLRLSCAASGSILKSNAMGGSRQAPGKARELVAANSSSGDSTYYADSVKGRFTISRDNAKNTVYLQMHSLKPADTAVYSCAARLRGRTRTGYYWGQGTQVTVSS”, the “polyreactivity (PSR sort gate)” value was “high polyreactivity”.
As to “QDQLVESGGGLVQAGGSLRLSCAASGYTFRYYAMGWYRQAPGKERELVARITGRAGSTYYADSVKGRFTISRDNAKNTVYLQMNSLKPEDTAVYYCAASIREGFYWGQGTQVTVSS”, the “polyreactivity (PSR sort gate)” value is on record as “high polyreactivity”.
The result for “QVQLVESGGGLVQAGGSLRLSCASSGFTFYIYVMGWYRQAPGKEREWVAAISSRGGSTYYADSVKGRFTISRDNAKNTVNSQMNSLKPEDTAVYYCNAVHYVLYGDYDYWGQGTQVTVSS” reads “high polyreactivity”; that for “QVQLVESGGGLVQAGGSLRLSCAASGRIFYLNAMGWYRQAPGKERELVAAITRSAASTHYADSVKGRFTISRDNAKNTVYLQMNSLKPEDTAVYYCAARFWYDYRHYDYWGQGTQVTVSS”, “low polyreactivity”.
As to “QVQLVESGGGLVQAGGSLRLSCAASGFTIPTYAMVWYRQAPGKERELVAAITRGGSTYYADSVKGRFTISRDNAKYTVYLQMNSLKPEDTAVYYCAADDPWYEEDYWGQGTQVTVSS”, the “polyreactivity (PSR sort gate)” value is “low polyreactivity”.
The result for “QVQLVESGGGLVQAGGSLRLSCAASGSIFRYYDMGWYRQAPGKERELVAAISWSGGTTYYADSVKGRFTISRDNAKNSVYLQMNSLNPEDTAVYYCNRVRYPSFVYWGQGTQVTVSS” reads “high polyreactivity”.
Regarding “QVQLVESGGGLVQAGGSLRLSCAASGRTFRTNAMAWYRQAPGKERELVAAITSDGTYYADSVKGRFTISRDNAKNTVYLQMNSLKPEDTAVYYWNVDDRENRDDYWGQGTQVTVSS”, the “polyreactivity (PSR sort gate)” value is “low polyreactivity”.
Next, “QVQLVESGGGLVQAGGSLRLSCAASGRIIPSYAMGWYRQAPGKERELVAAISDSDGSTYYADSVKGRFTISRDNAKNTVYLQMNSLKPEDTAVYYCAAEGSYPAYDYWGQGTQVTVSS”: “low polyreactivity”.
The result for “QVQLVESGGGLVQAGGSLRLSCAASGILFGGYVMGWDRQAPGKERELVAAISRGGGITYYADSVKGRFTISRDNAKNTVYLQMNSLKPEDPAVYYCNAGVYAGQTGYDYWGQGTQVTVSS” reads “high polyreactivity”.
Regarding “QVQLVESGAGLVQAGGSLRLSCAASGSAFYVYARGWYTQAPGKERELVAAIRGGGSTNYADSVKGRFTISRDNAKNTFYLQMNSLKPEDTAVYDCAARYRSPRYRPSGYSYNYWGQGTQVTVSS”, the “polyreactivity (PSR sort gate)” value was “high polyreactivity”.
For the sequence “QVQLVESGGGLVQAGGSLRLSCAASGRIFVGYALGWYRQAPGKERELVAAINRSGSSTYYADSVKGRFTISRDNAKNTDYLQMNSLKPEDTAVYYCNARSGNRYGPRYDYWGQGTQVTVSS”, the “polyreactivity (PSR sort gate)” value is listed as “high polyreactivity”.
As to “QDQLVESGGGLVQAGGSLRLSCAASGRIISANAMGWYRQAPGKERELVATISTGGGRTYYADSVKGRFTISRDNAKNTVYLQMNSLKPEDTAVYYCNATRNYARVRYYYWGQGTQVTVSS”, the “polyreactivity (PSR sort gate)” value was “high polyreactivity”.
The result for “QVQLVESGGGLVQAGGSLRLSCAASGRIFGYYAMGWFRQAPGKERELVATITFGGGSTYYADSVKGRFTISRDNAKNTVYLQMNSPKPEDTAVYYCAADSGYLGIYGDEYSWGQGTQVTVSS” reads “low polyreactivity”; that for “QVQLVEAGGGLVQAGGSLRLSCAASGRTFGSNAMGWYRQAPGKERELVAVITTSGGSTYYADSVKGRFTISRDNAKNTVYLQMNSLKPEDTAVYYCAKRVATGYIWYGYGYWGQGTQVTVSS”, “high polyreactivity”; that for “QDQLVESGGGLVQAGGSLRLSCAASGSNFVINAMGWYRQAPGKERELVAAISYSGTGTYYADSVKGRFTISRDNAKNTVYLQMNSLKPEDTAVYYCAGDYYYRYRIYDYWGQGTQVTVSS”, “low polyreactivity”.
As to “QVQLVESGGGLVQAGGSLRLSCAASGSTFAINAMGWYRQAPGKERELVAAISSSGSTNYADSVKGRFTISRDNAKNTVYLQMNSLKPEDTAVYYCAADQYWDGYDFLYDYWGQGTQVTVSS”, the “polyreactivity (PSR sort gate)” value was “low polyreactivity”.
Take “QVQLVESGGGLVQAGGSLRLSCAASGSTFTSSAMGWYRQAPGKERELVAAISKSGGSTYYADSVKGRFTLSRDNAKNTVYLQMNSLKPEDTAVYYCAARYNVRSYSTSRFDYWGQGTQVTVSS”: the “polyreactivity (PSR sort gate)” value is recorded as “low polyreactivity”.
For the sequence “QGQIVESGGGLVQAGGSLRLSCAASGFTFRRYAMGWYRQAPGKEREVVAGITSSGGSTYYADSVKGRFTSSRDKAKNPVYLQMNSLKPEDTAVYYCAAEWVYTSFDYWGQGTQVSVSS”, the “polyreactivity (PSR sort gate)” value was “high polyreactivity”.
The result for “QVQLVESGGGLVQAGGSLRLSCAASGSTFVWYAMGWYRQAPGKEREFVATISWSDGSTYYADSVKGRFTISRDNAKNTVYLQKNSLKPEDTAVYYCATDVDRFFTYKYDYWGQGTQVTVSS” reads “low polyreactivity”.
As to “QVQLVESGGGLVQAGGSLRLSCAASGRTFQRYTMGWYRQAPGKERELVASISRSGGSTYYADSVKGRFTISRDNAKNTVYLQMNSLKPEDTAVYYCATRSLFWNRNHYRVSSPVLYDYWGQGTQVTVSS”, the “polyreactivity (PSR sort gate)” value is “high polyreactivity”.
Next, “QVQLVESGGGLVQAGGSLRLSCAASGYIFRIYAMGWYRQAPGKERELVARISSGGGTNYADSVKGRFTISRDNAKNTVYLQMNSLKPEDTAVYYCNAGYGYQRGGVFFYRMGYWGQGTQVTVSS”: “high polyreactivity”; “QVHLVESGGGLVQAGGSLRLSCDASGSIFTYYAIGWYRPAPGKERELVAAITNGVDSTYYADSVKGRFTISRDNAKNTVYLQINSLKPEDTAVYYCNADTVVEWFSPSREYDYWGQGTQVTVSS”: “low polyreactivity”; “QGQLVESGGGLVQAGGSLRLSCAASGFIFRNYAMGWYRQAPGKERELVAAISRGGSTYYADSVKGRFTISRDNAKNTVYLQMNSLKPEDTAVYYCAADASTYYGTQWASYYYWGQGTQVTVSS”: “high polyreactivity”.
Next, “QVQLVESGGGLVQAGGSLRLSCAASGRTFGGNAMGWYRQAPGKERELVATIRSSSSTNYADSVKGRFTISRDNAKNTVYLQMNSLKPEDTAVYYCARRSQRGIYSMYYWGQGSQVTVSS”: “low polyreactivity”; “KVQLVESGGGLVQAGGSLRLSCAASGFTFYWYDMGWYRQAPGKERELVATISTGGGTNYADSVKGRFTISRDNAKNTVYLQMKSLKPEDTAVYYCAADGSAGYQWGYDFEGDYWGQGTQVTVSS”: “high polyreactivity”; “QVQLVKSGGGLVQAGGSLRLSCAASGFTIYYYAMGWYRQAPGKEMELVASITSGGSTYYADSVKGRFTISRDNAKNTVYLQMNSLKPEDTAVYYCAKTRFHSKEGDYWGQGTQVTVSS”: “low polyreactivity”.
Next, “QVQLVESGGGLVQAGGSLRLSCAASGSTFFGYAMGWYREAPGKERELVAAISSRGGSTYYADSVKGRFTISRDNAKKTVYLQMNSLKPEDTAVYYCNKVYHYPYYYWGQGTQVTVSS”: “high polyreactivity”; “QVQLVESGGGLVQAGGSLRLSCAASGRIFVYYTMGWYRPAPGKERELVAAIRSSGGSTYADSVKGRFTISRDNAKNTVSLQMNSLKPEDTAVYYCNAGYRSWQYRSGLYGDYNYWGQGTQVTVSS”: “high polyreactivity”; “QVQLVESGGGLVQAGGSLRLSCAPSGSIFYRNAMGWYIQAPGKERELVAAISWSAARTYYADSVKGRFTISRDNAKNTVYLQMNSLKPEDTAVYYCATLYSYNYWGQGTQVTVSS”: “high polyreactivity”.
In the case of “QVQLVESGEGLVQAGGSLRLSCAASGRIFAWYAMGWYRQAPGKERELVAAIDRGDNTYYADSVKGRFTISRDNAKNTGYLQMNSLKPEDTAVYYGFYYGAHEPYGYWGQGTQVTVSS”, the “polyreactivity (PSR sort gate)” value is recorded as “low polyreactivity”.
The result for “QVQLVESGGGLVQAGGSLRLSCAASGSIFYYNARGGYRQAPGKERELVATIRTSGGSTYYADSVKGRFTISRDNAMNTVYVQLNSLKPEDTAVYYCAARDLRKLYSRYPYYYWGQGTQVTVSS” reads “high polyreactivity”; that for “QVQLVESVGGLVQAGGSLRLSCAASGSIFQPYAMGWYRQAPGKERELVAAISIGDSTNYADSLKGRFTISRDNAKNTFYLQMNSLIPEDTAVYYCNTTGEYYDYWGQGTQVTVSS”, “low polyreactivity”.

For the origin of these results see the nanobody polyreactivity screen of Harvey et al. (2022).
